Assay results reported in PMC10375748.

Key:
[1] = target: ZZ peptide displayed on the CHO cell surface with the murine B7-1 transmembrane domain (from pEF1α-ZZ-B7); test: flow cytometry on cells; stable CHO-ZZ cells (2 x 10^5 cells/sample) incubated with an excess of fluorescein-conjugated IgG of Table 2 for 40 min at 4 °C, washed with PBS; percentage of positive cells
[2] = target: ZZ peptide displayed on the CHO cell surface with the murine B7-1 transmembrane domain (from pEF1α-ZZ-B7); test: flow cytometry on cells; CHO cells transiently transfected with the ZZ display plasmid, labelled with hIgG-FITC; percentage of ZZ-positive cells
[3] = target: ZZ peptide displayed on the CHO cell surface with the human PDGFR transmembrane domain (from pEF1α-ZZ-PDGFR); test: as above

| Substance | percentage of positive cells [1] [%] | percentage of ZZ-positive cells [2] [%] | percentage of ZZ-positive cells [3] [%] |
| --- | --- | --- | --- |
| Rb pAb to HA tag (PE) (Abcam Ab72564) (antibody) | 100 | – | – |
| Human IgG-FITC (Bersee BFR550) (antibody) | 100 | 43.6 | 6.9 |
| Rb pAb to 6× His tag (FITC) (Abcam Ab1206-250) (antibody) | 100 | – | – |
| Donkey Anti-Rabbit IgG (H + L)-Cy3 (Jackson ImmunoResearch Laboratories 711-165-152) (antibody) | 100 | – | – |
